# Measurements taken from patent US20220073646A1 (Hoffmann-La Roche, published 2022).
# Like-named read-outs stand apart in the source and are kept apart here.
# T1: human GITR on HEK cells (HEK-GITR) (human, UniProt Q9Y5U5 26-241)
# T1 construct: also called cell surface expressed human GITR
# T1 sequence: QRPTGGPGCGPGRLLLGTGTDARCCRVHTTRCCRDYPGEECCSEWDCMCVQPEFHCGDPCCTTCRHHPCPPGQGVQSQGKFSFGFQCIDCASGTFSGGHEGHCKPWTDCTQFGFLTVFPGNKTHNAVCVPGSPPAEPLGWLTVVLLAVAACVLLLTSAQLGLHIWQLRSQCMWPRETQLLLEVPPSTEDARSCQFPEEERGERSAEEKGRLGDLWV
# T2: human OX40 on cells (human, UniProt P43489 29-277)
# T2 sequence: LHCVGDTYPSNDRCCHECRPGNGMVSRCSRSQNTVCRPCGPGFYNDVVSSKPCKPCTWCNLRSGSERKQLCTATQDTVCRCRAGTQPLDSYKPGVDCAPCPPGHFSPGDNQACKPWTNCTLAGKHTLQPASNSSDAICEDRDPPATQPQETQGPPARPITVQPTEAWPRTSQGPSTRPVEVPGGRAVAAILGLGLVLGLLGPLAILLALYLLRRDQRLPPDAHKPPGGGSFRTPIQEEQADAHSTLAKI
# T3: cynomolgus OX40 on activated cynomolgus PBMC (cynomolgus, UniProt P43489 29-214 (human entry))
# T3 construct: whole, on cells
# T3 chain: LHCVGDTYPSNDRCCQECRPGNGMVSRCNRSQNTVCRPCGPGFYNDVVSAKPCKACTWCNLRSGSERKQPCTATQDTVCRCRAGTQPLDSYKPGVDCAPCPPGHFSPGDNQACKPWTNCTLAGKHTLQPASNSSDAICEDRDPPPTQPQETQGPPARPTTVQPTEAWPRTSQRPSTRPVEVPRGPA
# T4: recombinant human OX40 His (human)
# T4 construct: ectodomain with avi and hexahistidine tag; also called human Ox40 avi His
# T4 chain: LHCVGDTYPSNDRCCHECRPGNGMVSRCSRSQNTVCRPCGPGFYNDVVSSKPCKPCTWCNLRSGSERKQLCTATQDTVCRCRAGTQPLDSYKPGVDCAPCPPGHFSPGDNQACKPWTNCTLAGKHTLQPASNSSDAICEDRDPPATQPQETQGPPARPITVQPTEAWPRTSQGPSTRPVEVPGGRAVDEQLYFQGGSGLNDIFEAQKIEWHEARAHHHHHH
# T5: recombinant murine OX40 (cleaved by AcTEV digestion) (murine, UniProt P47741 20-211)
# T5 construct: Fc removed from murine OX40 Fc(kih)
# T5 sequence: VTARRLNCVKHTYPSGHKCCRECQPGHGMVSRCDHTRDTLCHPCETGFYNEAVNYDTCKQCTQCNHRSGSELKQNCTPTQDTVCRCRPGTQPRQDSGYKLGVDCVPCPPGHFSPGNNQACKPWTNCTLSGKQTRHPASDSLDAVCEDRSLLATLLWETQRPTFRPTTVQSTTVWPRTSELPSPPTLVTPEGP
# T6: cynomolgus 4-1BB on activated cynomolgus PBMC (cynomolgus, UniProt Q07011 24-255 (human entry))
# T6 chain: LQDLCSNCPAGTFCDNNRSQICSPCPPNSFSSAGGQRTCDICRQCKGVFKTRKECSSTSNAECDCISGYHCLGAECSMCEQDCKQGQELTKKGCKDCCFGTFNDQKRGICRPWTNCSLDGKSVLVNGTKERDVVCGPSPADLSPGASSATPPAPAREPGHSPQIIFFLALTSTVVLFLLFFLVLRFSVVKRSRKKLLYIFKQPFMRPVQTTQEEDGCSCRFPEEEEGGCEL
# B1: (GITR-FAP) [8A06] 4+1 construct (bispecific antibody, human IgG1, lambda, L234A L235A)
# heavy 1: not shown
# heavy 2: not shown
# light: SSELTQDPAVSVALGQTVRITCQGDSLRSYYASWYQQKPGQAPVLVIYGKNNRPSGIPDRFSGSSSGNTASLTITGAQAEDEADYYCNSPQTSGSAVFGGGTKLTVLGQPKAAPSVTLFPPSSEELQANKATLVCLISDFYPGAVTVAWKADSSPVKAGVETTTPSKQSNNKYAASSYLSLTPEQWKSHRSYSCQVTHEGSTVEKTVAPTECS
# B2: (GITR-FAP) [8A06] 4+2 construct (bispecific antibody, human IgG1, lambda, L234A L235A)
# heavy: not shown
# light 1: SSELTQDPAVSVALGQTVRITCQGDSLRSYYASWYQQKPGQAPVLVIYGKNNRPSGIPDRFSGSSSGNTASLTITGAQAEDEADYYCNSPQTSGSAVFGGGTKLTVLGQPKAAPSVTLFPPSSEELQANKATLVCLISDFYPGAVTVAWKADSSPVKAGVETTTPSKQSNNKYAASSYLSLTPEQWKSHRSYSCQVTHEGSTVEKTVAPTECS
# light 2: EIVLTQSPGTLSLSPGERATLSCRASQSVSRSYLAWYQQKPGQAPRLLIIGASTRATGIPDRFSGSGSGTDFTLTISRLEPEDFAVYYCQQGQVIPPTFGQGTKVEIKSSASTKGPSVFPLAPSSKSTSGGTAALGCLVKDYFPEPVTVSWNSGALTSGVHTFPAVLQSSGLYSLSSVVTVPSSSLGTQTYICNVNHKPSNTKVDKKVEPKSC
# B3: OX40(49B4)/DP47 P329GLALA IgG1 4+2 (bispecific antibody)
# heavy: not shown
# light 1: DIQMTQSPSTLSASVGDRVTITCRASQSISSWLAWYQQKPGKAPKLLIYDASSLESGVPSRFSGSGSGTEFTLTISSLQPDDFATYYCQQYSSQPYTFGQGTKVEIKRTVAAPSVFIFPPSDRKLKSGTASVVCLLNNFYPREAKVQWKVDNALQSGNSQESVTEQDSKDSTYSLSSTLTLSKADYEKHKVYACEVTHQGLSSPVTKSFNRGEC
# light 2: not shown
# notes: also called 4+2 (49B4/DP47); untargeted 4+2 construct
# B4: 12B3/FAP P329GLALA IgG1 2+2 (bispecific antibody)
# heavy: not shown
# light 1: not shown
# light 2: EIVLTQSPGTLSLSPGERATLSCRASQSVSRSYLAWYQQKPGQAPRLLIIGASTRATGIPDRFSGSGSGTDFTLTISRLEPEDFAVYYCQQGQVIPPTFGQGTKVEIKSSASTKGPSVFPLAPSSKSTSGGTAALGCLVKDYFPEPVTVSWNSGALTSGVHTFPAVLQSSGLYSLSSVVTVPSSSLGTQTYICNVNHKPSNTKVDKKVEPKSCD
# notes: also called 12B3×FAP (28H1) 2+2
# B5: 20B7 P329GLALA IgG1 (antibody, V domains shown)
# VH: QVQLVQSGAEVKKPGSSVKVSCKASGGTFSSYAISWVRQAPGQGLEWMGGIIPIFGTANYAQKFQGRVTITADKSTSTAYMELSSLRSEDTAVYYCARVNYPYSYWGDFDYWGQGTTVTVSS
# VL: DIQMTQSPSTLSASVGDRVTITCRASQSISSWLAWYQQKPGKAPKLLIYDASSLESGVPSRFSGSGSGTEFTLTISSLQPDDFATYYCQQYQAFSLTFGQGTKVEIKR
# notes: anti-OX40
# B6: 9B11 P329GLALA IgG1 (antibody, V domains shown)
# VH: QVQLVQSGAEVKKPGSSVKVSCKASGGTFSSYAISWVRQAPGQGLEWMGGIIPIFGTANYAQKFQGRVTITADKSTSTAYMELSSLRSEDTAVYYCARSSGAYPGYFDYWGQGTTVTVSS
# VL: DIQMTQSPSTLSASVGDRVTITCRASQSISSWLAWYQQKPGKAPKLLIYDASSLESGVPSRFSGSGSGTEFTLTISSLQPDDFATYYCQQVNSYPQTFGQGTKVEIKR
# notes: anti-4-1BB
# B7: clone 17A9 Fab (Fab, V domains shown)
# VH: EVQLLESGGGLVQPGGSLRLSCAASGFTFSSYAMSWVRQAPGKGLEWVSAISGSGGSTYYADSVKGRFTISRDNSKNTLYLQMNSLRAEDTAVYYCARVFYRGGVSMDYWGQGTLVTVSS
# VL: SSELTQDPAVSVALGQTVRITCQGDSLRSYYASWYQQKPGQAPVLVIYGKNNRPSGIPDRFSGSSSGNTASLTITGAQAEDEADYYCNSRVMPHNRVFGGGTKLTV
# notes: phage library Fab with CH1/CL and tags
# Columns and labels:
# [1] = molecular target: T7, recombinant human GITR Fc(kih) (human, UniProt P0DOX5 223-449 = IgG part, biotin on C-terminal Avi tag where used biotinylated); test: SPR, GITR Fc(kih) on SA chip, FAP second analyte
# T7 construct: also called hu GITR-Fc; human monomeric GITR-Fc fusion
# Procedure: (§1) All SPR experiments were performed on a Biacore T200 at 25° C. with HBS-EP as running buffer (0.01 M HEPES pH 7.4, 0.15 M NaCl, 3 mM EDTA, 0.005% Surfactant P20, Biacore, Freiburg/Germany). […] Immobilization levels up to 1000 resonance units (RU) were used. The bispecific constructs targeting GITR and FAP were passed at a concentration range of 200 nM with a flow of 30 μL/minute through the flow cells over 90 seconds and dissociation was set to zero sec. Human FAP was injected as second analyte with a flow of 30 μL/minute through the flow cells over 90 seconds at a concentration of 500 nM. The dissociation was monitored for 120 sec. Bulk refractive index differences were corrected for by subtracting the response obtained in a reference flow cell, where no protein was immobilized.
# [2] = molecular target: T8, human FAP (His-tagged ectodomain) (human, UniProt Q12884 27-760); test: SPR, GITR Fc(kih) on SA chip, FAP second analyte
# T8 construct: SPR texts say 'human FAP' or 'His-tagged ... dimeric FAP'; also called hu FAP; human FAP (analyte 2)
# Procedure: as §1
# [3] = molecular target: T9, human fibroblast activation protein (huFAP) on cells (human, UniProt Q12884 1-760); test: flow cytometry, 3T3-huFAP
# T9 construct: also called NIH/3T3-huFAP clone 39; NIH/3T3-huFAP clone 19
# [4] = molecular target: T1, human GITR on HEK cells (HEK-GITR); test: flow cytometry, HEK-GITR
# Procedure: Cells were washed twice with complete media and once with PBS+2% FBS before adjusting cell density to 1×10⁷ cells/mL in PBS+2% FBS.
# Plates were centrifuged at 4° C., 3 minutes at 600×g and supernatant was flicked off. Cells were resuspended in 50 μL/well of 4° C. cold PBS+2% FBS containing titrated anti-GITR antibody constructs for 120 minutes at 4° C. Plates were washed twice with 200 μL/well 4° C. PBS+2% FBS to remove unbound construct. […] Plates were centrifuged at 4° C. for 3 minutes at 600×g and washed twice with PBS+2% FBS. […] Plates were centrifuged at 4° C., 3 minutes at 600×g and supernatant was flicked off.
# [5] = molecular target: T8, human FAP (His-tagged ectodomain); test: SPR, human FAP as second analyte
# human OX40 on cells [6] = molecular target: T2, human OX40 on cells; test: flow cytometry, activated human CD4 T cells
# [7] = molecular target: T3, cynomolgus OX40 on activated cynomolgus …; test: flow cytometry, activated cynomolgus CD4 T cells
# Procedure: (§2) Then, plates were washed four times with 200 μL/well 4° C. FACS buffer. […] Plates where washed twice with 200 μL/well 4° C.
# [8] = molecular target: T9, human fibroblast activation protein …; test: flow cytometry, NIH/3T3-huFAP clone 19
# Procedure: Cells were maintained in the presence of 1.5 μg/mL puromycin (InvivoGen, Cat.-No.: ant-pr-5). […] Plates were incubated for 30 minutes at 4° C. and washed once with 200 μL 4° C. cold DPBS buffer. […] Cells were washed twice with 200 μL 4° C. FACS buffer and then resuspended in 50 μL/well DPBS containing 1% Formaldehyde for fixation. The same or the next day cells were resuspended in 100 μL FACS-buffer and acquired using 5-laser LSR-Fortessa (BD Bioscience with DIVA software) or MACSQuant Analyzer 10 (Miltenyi Biotec).
# human 4-1BB on cells [9] = molecular target: T10, human 4-1BB on cells (human, UniProt Q07011 24-255); test: flow cytometry, activated human CD8+ T cells
# T10 construct: also called HeLa-hu4-1BB-NF-kB-luc clone 26
# Procedure: (§3) Plates were centrifuged 4 minutes with 400×g at 4° C. and supernatant was discarded. […] Afterwards cells were washed once with 200 μL/well cold FACS buffer (DPBS supplied with 2% (v/v) FBS, 5 mM EDTA pH8 (Amresco, Cat. No. E177) and 7.5 mM sodium azide (Sigma-Aldrich S2002)). […] Cells were washed four times with 200 μL/well 4° C.
# Cells were washed twice with 200 μL FACS buffer/well and fixated by resuspending in 50 μL/well DPBS containing 1% Formaldehyde (Sigma, HT501320-9.5L). Cells were acquired the same or next day using 3-laser MACSQuant Analyzer 10 (Miltenyi Biotech). Gates were set on CD8⁺ and CD4⁺ T cells and the geo mean of fluorescence intensity (MFI) of the secondary detection antibody was used to analyze binding of primary antibodies. Using Graph Pad Prism (Graph Pad Software Inc.) data was baselined by subtracting the blank values (no primary antibody added) and the EC₅₀ values were calculated using non-linear regression curve fit (robust fit).
# human 4-1BB on cells [10] = molecular target: T10, human 4-1BB on cells; test: cell-based or functional assay
# [11] = molecular target: recombinant cynomolgus OX40 Fc(kih) (cynomolgus, UniProt P0DOX5 223-449 = IgG part, biotin on C-terminal Avi tag where used biotinylated); test: SPR, captured IgG, cyno OX40 Fc(kih) analyte
# Procedure: (§4) All SPR experiments were performed on a Biacore T200 at 25° C. with HBS-EP as running buffer (0.01 M HEPES pH 7.4, 0.15 M NaCl, 3 mM EDTA, 0.005% Surfactant P20, Biacore, Freiburg/Germany).
# Anti-human Fab antibody (Biacore, Freiburg/Germany) was directly coupled on a CM5 chip at pH 5.0 using the standard amine coupling kit (Biacore, Freiburg/Germany). The immobilization level was approximately 9000 RU. […] The dissociation was monitored for 120 seconds. Bulk refractive index differences were corrected for by subtracting the response obtained on reference flow cell.
# human OX40 on cells [12] = molecular target: T2, human OX40 on cells; test: cell-based or functional assay
# [13] = molecular target: T11, recombinant human OX40 Fc(kih) (human, UniProt P0DOX5 223-449 = IgG part, biotin on C-terminal Avi tag where used biotinylated); test: SPR, captured IgG, OX40 Fc(kih) analyte
# T11 construct: antigen Fc knob chain plus Fc hole chain; also called monomeric human OX40 antigen Fc(kih) fusion; biotinylated human OX40
# Procedure: as §4
# Setup 1) Anti-human Fab antibody (Biacore, Freiburg/Germany) was directly coupled on a CM5 chip at pH 5.0 using the standard amine coupling kit (Biacore, Freiburg/Germany). The immobilization level was approximately 9000 RU. […] The dissociation was monitored for 120 seconds. Bulk refractive index differences were corrected for by subtracting the response obtained on reference flow cell.
# [14] = molecular target: T4, recombinant human OX40 His; test: SPR, captured IgG, OX40 His analyte
# Procedure: as §4
# Setup 2) Anti-human Fc antibody (Biacore, Freiburg/Germany) was directly coupled on a CM5 chip at pH 5.0 using the standard amine coupling kit (Biacore, Freiburg/Germany). The immobilization level was approximately 8000 RU. […] The dissociation was monitored for 120 seconds. Bulk refractive index differences were corrected for by subtracting the response obtained on reference flow cell.
# [15] = molecular target: T12, dimeric human OX40 Fc fusion with a C-terminal Ha tag (human); test: SPR, OX40 Fc held on OX40 ligand
# T12 construct: also called recombinant human Ox40 Fc; huOx40-Fc
# Source text: The dissociation was monitored for 60 seconds. Bulk refractive index differences were corrected for by subtracting the response obtained on reference flow cell.
# [16] = molecular target: recombinant murine OX40 Fc(kih) (murine, UniProt P0DOX5 223-449 = IgG part, biotin on C-terminal Avi tag); test: SPR avidity format, murine OX40 Fc(kih) on SA chip
# [17] = molecular target: T5, recombinant murine OX40 (cleaved by …); test: SPR, captured IgG, AcTEV-cleaved murine OX40 analyte
# Source text: Anti-human Fc antibody (Biacore, Freiburg/Germany) was directly coupled on a CM5 chip at pH 5.0 using the standard amine coupling kit (Biacore, Freiburg/Germany). The immobilization level was approximately 8000 RU. […] The dissociation was monitored for 120 seconds. Bulk refractive index differences were corrected for by subtracting the response obtained on reference flow cell.
# human OX40 on cells [18] = molecular target: T2, human OX40 on cells; test: cell-based or functional assay; remark: listed apart in the source
# human OX40 on cells [19] = molecular target: T2, human OX40 on cells; test: flow cytometry, activated human CD4 T cells; remark: listed apart in the source
# Procedure: Plates were centrifuged 4 minutes with 400×g and at 4° C. and supernatant was flicked off. Cell were washed once with 200 μL 4° C. cold FACS buffer (DPBS supplied with 2% FBS, 5 mM EDTA pH8 (Amresco, Cat. No. E177) and 7.5 mM Sodium azide (Sigma-Aldrich S2002)). […] Plates were washed four times with 200 μL/well 4° C. FACS buffer to remove unbound construct.
# Plates where washed twice with 200 μL/well 4° C.
# [20] = molecular target: T3, cynomolgus OX40 on activated cynomolgus …; test: flow cytometry, activated cynomolgus CD4 T cells
# Procedure: Centrifugation was performed at 520×g, without brake at room temperature for 30 minutes. Adjacent centrifugation at 150×g at room temperature for 15 minutes was performed to reduce platelets count followed by several centrifugation steps with 400×g at room temperature for 10 minutes to wash PBMC with sterile DPBS.
# as §2
# [21] = molecular target: T13, recombinant human 4-1BB Fc(kih) (human, UniProt P0DOX5 223-449 = IgG part, biotin on C-terminal Avi tag where used biotinylated); test: SPR, captured IgG, 4-1BB Fc(kih) analyte
# T13 construct: also called hu4-1BB; biotinylated human 4-1BB
# Procedure: as §4
# Anti-human Fab antibody (Biacore, Freiburg/Germany) was directly coupled on a CM5 chip at pH 5.0 using the standard amine coupling kit (Biacore, Freiburg/Germany). The immobilization level was approximately 7500 RU. […] The dissociation was monitored for 120 seconds. Bulk refractive index differences were corrected for by subtracting the response obtained on reference flow cell.
# [22] = molecular target: recombinant cynomolgus 4-1BB Fc(kih) (cynomolgus, UniProt P0DOX5 223-449 = IgG part, biotin on C-terminal Avi tag where used biotinylated); test: SPR, captured IgG, cyno 4-1BB Fc(kih) analyte
# Procedure: as §4
# Anti-human Fab antibody (Biacore, Freiburg/Germany) was directly coupled on a CM5 chip at pH 5.0 using the standard amine coupling kit (Biacore, Freiburg/Germany). The immobilization level was approximately 9000 RU.
# human 4-1BB on cells [23] = molecular target: T10, human 4-1BB on cells; test: cell-based or functional assay; remark: listed apart in the source
# human 4-1BB on cells [24] = molecular target: T10, human 4-1BB on cells; test: flow cytometry, activated human CD8 T cells
# Procedure: as §3
# Cells were washed twice with 200 μL FACS buffer/well and fixated by resuspending in 50 μL/well DPBS containing 1% Formaldehyde (Sigma, HT501320-9.5L). Cells were acquired the same or next day using a 3-laser Canto II (BD Bioscience with DIVA software) or a 5-laser Fortessa (BD Bioscience with DIVA software) or 3-laser MACSQuant Analyzer 10 (Miltenyi Biotech). Gates were set on CD8⁺ and CD4⁺ T cells and the median fluorescence intensity (MFI) or geo mean of fluorescence intensity of the secondary detection antibody was used to analyze binding of primary antibodies. Using Graph Pad Prism (Graph Pad Software Inc.) data was baselined by subtracting the blank values (no primary antibody added) and the EC50 values were calculated using non-linear regression curve fit (robust fit).
# [25] = molecular target: mouse 4-1BB on activated mouse splenocytes (mouse, UniProt P20334 24-256); test: flow cytometry, activated mouse T cells
# Chain of mouse 4-1BB on activated mouse splenocytes (P20334 24-256 limits assumed): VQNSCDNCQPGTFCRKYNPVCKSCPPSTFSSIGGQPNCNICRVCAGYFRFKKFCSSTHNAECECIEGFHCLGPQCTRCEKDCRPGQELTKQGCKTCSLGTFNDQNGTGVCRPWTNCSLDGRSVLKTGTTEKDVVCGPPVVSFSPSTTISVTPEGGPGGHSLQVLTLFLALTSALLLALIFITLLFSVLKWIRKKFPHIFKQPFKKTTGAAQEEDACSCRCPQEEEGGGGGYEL
# Procedure: Cells were incubated for 30 min at 4° C., washed twice with 200 μL/well FACS-buffer and resuspended for fixation with 50 μL/well DPBS containing 1% (v/v) formaldehyde. The next day cells were resuspended in 200 μL/well FACS buffer and acquired using the 2-laser Cantoll (BD Bioscience with DIVA software) or 5-laser Fortessa (BD Bioscience with DIVA software). Gates were set on CD8⁺ and CD4⁺ T cells and the median fluorescence intensity (MFI) of the secondary detection antibody was used to analyze binding of primary antibodies. Using Graph Pad Prism (Graph Pad Software Inc.) data was baselined by subtracting the blank values (no primary antibody added) and the EC₅₀ values were calculated using non-linear regression curve fit (robust fit).
# [26] = molecular target: T6, cynomolgus 4-1BB on activated …; test: flow cytometry, activated cynomolgus PBMC
# Procedure: Cells were washed twice with FACS buffer and resuspended in 100 μL/well FACS buffer supplied with 0.2 μg/mL DAPI to discriminated dead from living cells. Cells were immediately acquired using a 5-laser Fortessa (BD Bioscience with DIVA software). Gates were set on CD8⁺ and CD4⁺ T cells and the median fluorescence intensity (MFI) of the secondary detection antibody was used to analyze binding of primary antibodies. Using Graph Pad Prism (Graph Pad Software Inc.) data was baselined by subtracting the blank values (no primary antibody added) and the EC₅₀ values were calculated using non-linear regression curve fit (robust fit).
# [27] = molecular target: T11, recombinant human OX40 Fc(kih); test: phage display, Fab ELISA
binder,measurement,setting,value
B1,binding result,[1],binds
B2,binding result,[2],binds
same,binding result,[3],binds
same,EC50,[4],3.85 nM
B3,binding result,[5],no binding (tested: 250 nM)
same,EC50,human OX40 on cells [6],0.11 nM
same,EC50,[7],0.07 nM
B4,EC50,[8],12.2 nM
same,EC50,human 4-1BB on cells [9],2 nM
same,"EC50 of NFκB/luciferase activation, 4-1BB reporter HeLa with NIH/3T3-huFAP clone 19",human 4-1BB on cells [10],0.2 nM
B5,Kd,[11],1100 nM
same,koff,[11],0.0166 s⁻¹
same,kon,[11],15700 M⁻¹ s⁻¹
same,EC50 of rescuing suboptimal TCR stimulation with plate-immobilized anti-OX40 binder (preactivated human CD4 T cells),human OX40 on cells [12],0.09 nM
same,Kd,[13],42 nM
same,koff,[13],0.0013 s⁻¹
same,kon,[13],32000 M⁻¹ s⁻¹
same,Kd,[14],5.6 nM
same,koff,[14],0.00066 s⁻¹
same,kon,[14],120000 M⁻¹ s⁻¹
same,binding result,[15],binds
same,binding result,[16],binds
same,Kd,[17],360 nM
same,koff,[17],0.018 s⁻¹
same,kon,[17],49000 M⁻¹ s⁻¹
same,EC50 of NFκB activation in HeLa_hOx40_NFκB_luc1 reporter cells with secondary anti-human IgG Fcγ antibody,human OX40 on cells [18],2.27 nM
same,EC50,human OX40 on cells [19],1.64 nM
same,EC50,[20],1.52 nM
B6,Kd,[21],140 nM
same,koff,[21],0.0039 s⁻¹
same,kon,[21],27000 M⁻¹ s⁻¹
same,Kd,[22],78 nM
same,koff,[22],0.002 s⁻¹
same,kon,[22],26000 M⁻¹ s⁻¹
same,EC50 of increase of IFNγ secretion in activated CD8+ T cells (surface-immobilized IgG),human 4-1BB on cells [23],0.12 nM
same,EC50,human 4-1BB on cells [24],4.49 nM
same,binding result,[25],no binding
same,binding result,[26],binds
B7,binding result,[27],binds
